Reference: doi:10.1101/2023.05.01.538930 (bioRxiv, 2023)

T1: GajA of the Gabija system from Bacillus cereus VD045 (Bacillus cereus VD045, UniProt J8H9C1 1-578)
T1 sequence (looked up): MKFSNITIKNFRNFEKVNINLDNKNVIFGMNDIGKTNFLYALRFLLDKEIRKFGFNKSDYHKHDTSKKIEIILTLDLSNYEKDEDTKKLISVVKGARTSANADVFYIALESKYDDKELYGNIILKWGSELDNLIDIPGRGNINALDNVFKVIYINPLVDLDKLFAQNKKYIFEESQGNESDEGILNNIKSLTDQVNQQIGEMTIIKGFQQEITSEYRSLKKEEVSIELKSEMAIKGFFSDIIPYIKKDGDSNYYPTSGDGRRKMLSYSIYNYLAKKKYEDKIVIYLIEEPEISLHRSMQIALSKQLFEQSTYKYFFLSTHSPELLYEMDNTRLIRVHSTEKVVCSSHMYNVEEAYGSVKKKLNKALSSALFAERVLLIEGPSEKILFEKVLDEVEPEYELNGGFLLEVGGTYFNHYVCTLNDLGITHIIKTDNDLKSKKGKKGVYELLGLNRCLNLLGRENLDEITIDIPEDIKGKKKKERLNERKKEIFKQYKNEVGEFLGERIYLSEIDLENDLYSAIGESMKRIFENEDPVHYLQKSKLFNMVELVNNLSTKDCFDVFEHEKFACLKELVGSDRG


Assays:
crystal structure = target: the molecule itself; assay: crystal structure
[1] = target: T1, GajA of the Gabija system from Bacillus …; assay: reconstitution of the complex from purified proteins

Binder	stoichiometry N (crystal structure)	binding result [1]
Tad2 from phage SPO1 (construct for crystallization) (natural protein, Bacillus phage SPO1) MKTKMSFGEALEVLKQGMQVYRSGWNGKNMFLFLKSSDALASDFGFGFGEYINEPVFGNIIFIKTADNKIHAWVPSQTDVLAEDWDIVS	4	–
GajB of the Gabija system from Bacillus cereus VD045 (natural protein, UniProt J8HQ06 1-494, looked up) MSREQIIKDGGNILVTAGAGSGKTTILVSKIEADLKENKTHYSIAAVTFTNKAAKEIEGRLGYSSRGNFIGTNDGFVESEIIRPFIKDAFGNDYPDNFTAEYFDNQFASYDKGLQVLKYQNILGTYSNPKKNFKFQLALDILKKSLVARQYIFSKYFKIFIDEYQDSDKDMHNLFMYLKDQLKIKLFIVGDPKQSIYIWRGAEPENFNGLIENSTDFNKYHLTSNFRCCQDIQNYSNLFNEETRSLIKEKNEVQNVISIADDMPISDILLKLTEEKQVLNIEAELVILVRRRNQAIEIMKELNEEGFNFIFIPQTPLDRATPNATLLKEVIKYVKNDRYSIYDLAAEIVGNLSSREIKEIQKIINELLVPNINQVLINQVLINLFAKLEITLDTREITAFTEVMMTNEFDIAFDTNEYLHKIFTVHSAKGLEFNQVIITASDYNVHYNRDTNEHYVATTRAKDKLIVIMDNKKYSDYIETLMKELKIKNIIKSI	–	binds
